Sequences and labels used below:
B1: Ubiquitin carboxyl-terminal hydrolase CYLD (Homo sapiens), Q9NQC7 (parent)
chain: MSSGLWSQEKVTSPYWEERIFYLLLQECSVTDKQTQKLLKVPKGSIGQYIQDRSVGHSRIPSAKGKKNQIGLKILEQPHAVLFVDEKDVVEINEKFTELLLAITNCEERFSLFKNRNRLSKGLQIDVGCPVKVQLRSGEEKFPGVVRFRGPLLAERTVSGIFFGVELLEEGRGQGFTDGVYQGKQLFQCDEDCGVFVALDKLELIEDDDTALESDYAGPGDTMQVELPPLEINSRVSLKVGETIESGTVIFCDVLPGKESLGYFVGVDMDNPIGNWDGRFDGVQLCSFACVESTILLHINDIIPALSESVTQERRPPKLAFMSRGVGDKGSSSHNKPKATGSTSDPGNRNRSELFYTLNGSSVDSQPQSKSKNTWYIDEVAEDPAKSLTEISTDFDRSSPPLQPPPVNSLTTENRFHSLPFSLTKMPNTNGSIGHSPLSLSAQSVMEELNTAPVQESPPLAMPPGNSHGLEVGSLAEVKENPPFYGVIRWIGQPPGLNEVLAGLELEDECAGCTDGTFRGTRYFTCALKKALFVKLKSCRPDSRFASLQPVSNQIERCNSLAFGGYLSEVVEENTPPKMEKEGLEIMIGKKKGIQGHYNSCYLDSTLFCLFAFSSVLDTVLLRPKEKNDVEYYSETQELLRTEIVNPLRIYGYVCATKIMKLRKILEKVEAASGFTSEEKDPEEFLNILFHHILRVEPLLKIRSAGQKVQDCYFYQIFMEKNEKVGVPTIQQLLEWSFINSNLKFAEAPSCLIIQMPRFGKDFKLFKKIFPSLELNITDLLEDTPRQCRICGGLAMYECRECYDDPDISAGKIKQFCKTCNTQVHLHPKRLNHKYNPVSLPKDLPDWDWRHGCIPCQNMELFAVLCIETSHYVAFVKYGKDDSAWLFFDSMADRDGGQNGFNIPQVTPCPEVGEYLKMSLEDLHSLDSRRIQGCARRLLCDAYMCMYQSPTMSLYK

The variants in this assay derive from B1. The note with it: with itch_human ITCH.
As to Y485A, the “effect of a mutation on the interaction” value is “disrupting interaction”.

Values taken from IntAct's records for PubMed 22057290.
